Test results from US20230240981A1 (THE REGENTS OF THE UNIVERSITY OF CALIFORNIA, priority 2020, published 2023).

How the values were obtained:
[1] = MALDI-TOF mass spectrum of native and microneedle-released insulin/glucagon; format: physicochemical; details: throughout the polymerization process
[2] = physiological pH

In the case of “insulin: Human recombinant insulin purchased from Thermo Fisher Scientific”, the “integrity of protein released from microneedles” value [1] is reported as “stayed intact” and the solubility [2] is reported as “high solubility”.
